In this test the target is synthetic glycosylated MUC1 30-mer peptide …[GalNAcalpha]…. Briefly: ELISA on plate-coated glycosylated MUC1 30-mer peptide, antibody 1-400 ng/ml, anti-human Fcgamma1-peroxidase detection. On the technique in general: ELISA stands for enzyme-linked immunosorbent assay.
Sequence of synthetic glycosylated MUC1 30-mer peptide …[GalNAcalpha]… (peptide, as listed by the source): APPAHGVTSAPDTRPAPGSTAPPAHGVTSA

Regarding “chimeric PankoMab isolated from NM-F9 cells (antibody)”, the binding activity, percent higher than that of the same antibody isolated from CHOdhfr- cells turned out to be 50%.

The record behind these values is patent US9051356.
